According to patent US20240317847A1 (Bayer, published 2024):
Numbering of substitutions follows the chain as printed.

Experiments:
human IL-11 [1] = molecular target: T1, human IL-11 (human, UniProt P20809 22-199); test: Tri-complex ELISA, hIL-11 + mIL-11Ra-Fc + hgp130-Fc, inhibition of complex formation; Tri-complex ELISA (IL-11/IL-11Ra/gp130 formation), efficacy only 25%
T1 construct: Invigate recombinant protein; biotinylated when immobilized in the Di-complex ELISA; also called hIL11; hIL-11
T1 sequence: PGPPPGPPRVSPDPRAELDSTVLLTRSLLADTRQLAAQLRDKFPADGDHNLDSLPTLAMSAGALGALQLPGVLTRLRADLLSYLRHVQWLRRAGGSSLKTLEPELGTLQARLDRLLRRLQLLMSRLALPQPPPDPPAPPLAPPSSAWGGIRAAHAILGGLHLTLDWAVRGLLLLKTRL
Description: In a first step, 25 μl of goat anti human IgG (Sigma, #12136), diluted 1:1000 in coating buffer (Candor, #121125) was coated on the plate at 4° C. overnight. Next day, the plate was washed one time with 50 μl PBST and then blocked with 50 μl SmartBlock (Candor, #113125) for one hour at room temperature (RT). […] After three additional washes of the coated and blocked microtiter plate with PBS-T, 25 μl of each mixture were added and the assay plate was incubated for one hour at room temperature. After three additional washes, anti-mouse-gp130 biotinylated antibody (R&D, #BAF468) or anti-human gp130 biotinylated antibody (R&D, #BAF228), both 1:1000 in 10% SmartBlock PBS-T, was added and incubated for 1 hour at RT. […] Then, the fluorescence was measured with a plate reader at 535/595 nm. […] Efficacy was calculated as [(signal measured at lowest antibody concentration−signal measured at the highest antibody concentration)×100] divided by (signal measured at lowest antibody concentration−signal measured in the absence of antibody at an IL11 concentration of 8.2E-11 [M]).
IgG converted antibodies were subjected to the experimental assay procedure described in Example 19 and IC50 [M], respectively efficacy (%) were calculated accordingly.

human IL-11 [2] = molecular target: T1, human IL-11; test: Di-complex ELISA, murine IL11RA-Fc binding to immobilized hIL-11, competition
murine IL-11 [3] = molecular target: T2, murine IL-11 (mouse, UniProt P47873 22-199); test: cell-based or functional assay
T2 sequence: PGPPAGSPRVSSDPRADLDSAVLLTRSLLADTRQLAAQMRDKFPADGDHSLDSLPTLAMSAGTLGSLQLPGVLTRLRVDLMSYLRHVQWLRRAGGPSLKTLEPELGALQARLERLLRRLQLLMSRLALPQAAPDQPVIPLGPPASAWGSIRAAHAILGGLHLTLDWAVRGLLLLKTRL

human IL-11 [4] = molecular target: T3, human IL-11 (human, UniProt P20809 22-199); test: cell-based or functional assay
T3 sequence: T1 sequence

rat IL-11 = molecular target: T4, rat IL-11 (rat, UniProt Q99MF5 22-199); test: SPR 37 C, antibody captured, IL-11 as analyte
T4 construct: Invigate, e.g. lot #C301019-19; also called rIL11
T4 sequence: T2 sequence with S50N, L84F, G94A, V137A, I138V

murine IL-11 [5] = molecular target: T2, murine IL-11; test: SPR 37 C, antibody captured, IL-11 as analyte
cynomolgus IL-11 = molecular target: T5, cynomolgus IL-11 (cynomolgus, UniProt P20808 22-199); test: SPR 37 C, antibody captured, IL-11 as analyte
T5 construct: Invigate, lot #C290621-19; also called cIL11; cynoL-11
T5 sequence: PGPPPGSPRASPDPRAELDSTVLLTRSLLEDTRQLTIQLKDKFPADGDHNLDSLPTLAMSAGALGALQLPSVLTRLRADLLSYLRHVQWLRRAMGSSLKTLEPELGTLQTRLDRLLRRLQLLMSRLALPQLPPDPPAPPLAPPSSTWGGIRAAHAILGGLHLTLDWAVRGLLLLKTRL

B1: TPP-18087 (antibody, mouse IgG1, V domains shown)
VH: EVQLLESGGGLVQPGGSLRLSCAASGFTFSHYDMNWLRQAPGKGLEWVGVISYDGSNKFYADFVKGRFTISRDNSKNTLYLQMNSLRAEDTAVYYCARTPGSHFDYWGQGTLVTVSS
VL: QSVLTQPPSASGTPGQRVTISCSGSSSNIGNNAVNWYQQLPGTAPKLLIYYDDLLPSGVPDRFSGSKSGTSASLAISGLRSEDEADYYCSAWDDSLNGVVFGGGTKLTVLG
notes: mIgG1, Lambda
For B1, the IC50 (human IL-11 [1]) was 1.5 nM.

B2: TPP-29697 (bispecific antibody, IgG1)
chain 1: QVQLVESGGGVVQPGRSLRLSCAASGFTFSHYDMHWVRQAPGKGLEWVAVISYHGSVKFYADSVKGRFTISRDNSKNTLYLQMNSLRAEDTAVYYCARTPGFHFDYWGQGTLVTVSSGGGGSGGGGSGGGGSQSVLTQPPSASGTPGQRVTISCSGSSSNIGSNYVSWYQQLPGTAPKLLIYYDDLRPSGVPDRFSGSKSGTSASLAISGLRSEDEADYYCSAWDDSLSGVVFGGGTKLTVLGGGGSGGGGSGGGGSGVECPPCPAPPVAGPSVFLFPPKPKDTLMISRTPEVTCVVVGVSHEDPEVKFNWYVDGVEVHNAKTKPREEQYNSTYRVVSVLTVLHQDWLNGKEYKCKVSNKQLPSPIEKTISKAKGQPREPQVYTLPPCRDELTKNQVSLWCLVKGFYPSDIAVEWESNGQPENNYKTTPPVLDSDGSFFLYSKLTVDKSRWQQGNVFSCSVMHEALHNHYTQKSLSLSPGK
chain 2: EVQLLESGGGLVQPGGSLRLSCAASGFTFSSYGMHWVRQAPGKGLEWVAVISYDGSYKYYADSVKGRFTISRDNSKNTLYLQMNSLRAEDTAVYYCAAGVPDYWGQGTLVTVSSGGGGSGGGGSGGGGSQSVLTQPPSASGTPGQRVTISCSGSSSNIGSDYDVHWYQQLPGTAPKLLIYSNEERPSGVPDRFSGSKSGTSASLAISGLRSEDEADYYCSAWDSSLSGPVFGGGTKLTVLGGGGSGGGGSGGGGSGVECPPCPAPPVAGPSVFLFPPKPKDTLMISRTPEVTCVVVGVSHEDPEVKFNWYVDGVEVHNAKTKPREEQYNSTYRVVSVLTVLHQDWLNGKEYKCKVSNKQLPSPIEKTISKAKGQPREPQVCTLPPSRDELTKNQVSLSCAVKGFYPSDIAVEWESNGQPENNYKTTPPVLDSDGSFFLVSKLTVDKSRWQQGNVFSCSVMHEALHNHYTQKSLSLSPGK
notes: scFv-kih-hIgG1 with Fc-silencing mutations; bispecific comprising CDRs of TPP-29528 and TPP-29519
Work on B2 yielded an IC50 (human IL-11 [2]) of 1.6 nM.

B3: TPP-18068 (antibody, mouse IgG1)
heavy: EVQLLESGGGLVQPGGSLRLSCAASGFTFSSYGMHWVRQAPGKGLEWVSVISYDGSYKYYADSVKGRFTISRDNSKNTLYLQMNSLRAEDTAVYYCAAGVPDYWGQGTLVTVSSAKTTPPSVYPLAPGSAAQTNSMVTLGCLVKGYFPEPVTVTWNSGSLSSGVHTFPAVLQSDLYTLSSSVTVPSSTWPSETVTCNVAHPASSTKVDKKIVPRDCGCKPCICTVPEVSSVFIFPPKPKDVLTITLTPKVTCVVVDISKDDPEVQFSWFVDDVEVHTAQTQPREEQFNSTFRSVSELPIMHQDWLNGKEFKCRVNSAAFPAPIEKTISKTKGRPKAPQVYTIPPPKEQMAKDKVSLTCMITDFFPEDITVEWQWNGQPAENYKNTQPIMDTDGSYFVYSKLNVQKSNWEAGNTFTCSVLHEGLHNHHTEKSLSHSPGK
light: QSVLTQPPSASGTPGQRVTISCTGSSSNIGAGYDVHWYQQLPGTAPKLLIYSNNERPSGVPDRFSGSKSGTSASLAISGLRSEDEADYYCAAWDDSLNGPVFGGGTKLTVLGQPKSSPSVTLFPPSSEELETNKATLVCTITDFYPGVVTVDWKVDGTPVTQGMETTQPSKQSNNKYMASSYLTLTARAWERHSSYSCQVTHEGHTVEKSLSRADCS
notes: mIgG1, Lambda
With B3 the “RGA Efficacy (%)” value (murine IL-11 [3]) was 93.1%, the “RGA IC50” value (murine IL-11 [3]) was 1 nM and the “RGA Efficacy (%)” value (human IL-11 [4]) was 60.3%. For the same binder, the “RGA IC50” value (human IL-11 [4]) was 6.7 nM, the Kd (rat IL-11) was 0.58 nM and the Kd (murine IL-11 [5]) was 0.41 nM. For the same binder, the Kd (cynomolgus IL-11) was 5 nM.
